Molecular target: relaxin binding sites on primary human fetal cardiac cells (receptor not named) (human)
Assay: competitive binding on cultured cells: 100 µM 32P-relaxin, 2 hr at room temperature, with or without 1000-fold excess of unlabeled relaxin; (total - nonspecific)/total x 100

Q: “32P-labeled relaxin (from UniProt P04090 162-185; P04090 25-53) (ligand)” was tested. Which percent specific binding did it give?
A: 40 to 55%

From patent US20020019349A1
